# Test results published in US20240018252A1.
# Substitutions are numbered along the chain they refer to. Names may count otherwise. “And” between values parts separate entries of the source, which are not always exact repeats. Equal values may be shown once.
# B1: P5C1/h2B4 anti-BCMA/CD3 bispecific (bispecific antibody, V domains shown)
# VH 1: EVQLLESGGGLVQPGGSLRLSCAASGFTFSSYPMSWVRQAPGKGLEWVSAIGGSGGSTYYADSVKGRFTISRDNSKNTLYLQMNSLRAEDTAVYYCARYWPMDSWGQGTLVTVSS
# VL 1: EIVLTQSPGTLSLSPGERATLSCRASQSVSSTYLAWYQQKPGQAPRLLIYDASSRAPGIPDRFSGSGSGTDFTLTISRLEPEDFAVYYCQQYSTSPLTFGQGTKVEIK
# VH 2: EVQLVESGGGLVQPGGSLRLSCAASGFTFSDYYMTWVRQAPGKGLEWVAFIRNRARGYTSDHNASVKGRFTISRDNAKNSLYLQMNSLRAEDTAVYYCARDRPSYYVLDYWGQGTTVTVSS
# VL 2: DIVMTQSPDSLAVSLGERATINCTSSQSLFNVRSRKNYLAWYQQKPGQPPKLLISWASTRESGVPDRFSGSGSGTDFTLTISSLQAEDVAVYYCKQSYDLFTFGSGTKLEIK
# B2: COMBO_Rd4_0.6nM_C22/h2B4 anti-BCMA/CD3 bispecific (bispecific antibody, V domains shown)
# VH 1: B1 VH 1 with P33A, S35N, G52S, G53D, T58R, Y59W, A97T, S104I
# VL 1: B1 VL 1 with Q27V, S28R, I49M, S54I, P57T, S93M, T94K, S95W
# VH 2: B1 VH 2
# VL 2: B1 VL 2
# B3: A02_Rd4_6nM_C16/h2B4 anti-BCMA/CD3 bispecific (bispecific antibody, V domains shown)
# VH 1: B1 VH 1 with P33A, S35N, G52S, G53D, S54F, S104I
# VL 1: B1 VL 1 with S31D, T32L, I49M, S54I, P57T, S93Q, S95W
# VH 2: B1 VH 2
# VL 2: B1 VL 2
# B4: A02_Rd4_6nM_C01/h2B4 anti-BCMA/CD3 bispecific (bispecific antibody, V domains shown)
# VH 1: B1 VH 1 with P33A, S35N, G52T, G53A, D103S, S104L
# VL 1: B1 VL 1 with S31A, T32Y, I49M, S54I, P57T, S93E, T94R, S95W
# VH 2: B1 VH 2
# VL 2: B1 VL 2
# B5: C01_Rd4_6nM_C12/h2B4 anti-BCMA/CD3 bispecific (bispecific antibody, V domains shown)
# VH 1: B1 VH 1 with S57W, T58S
# VL 1: B1 VL 1 with R24W, A25L, T94E, S95W
# VH 2: B1 VH 2
# VL 2: B1 VL 2
# B6: A02_Rd4_0.6nM_C01/h2B4 anti-BCMA/CD3 bispecific (bispecific antibody, V domains shown)
# VH 1: B1 VH 1 with P33A, S35N, G52L, G53S, S104I
# VL 1: B1 VL 1 with A25G, S26G, T32S, I49M, S54I, P57T, S93Q, T94S, S95W
# VH 2: B1 VH 2
# VL 2: B1 VL 2
# B7: P5A2/h2B4 anti-BCMA/CD3 bispecific (bispecific antibody, V domains shown)
# VH 1: B1 VH 1 with P33A, S35N, G52S, G53D, S104I
# VL 1: B1 VL 1 with T32S, I49M, S54I, P57T, S93G, T94S, S95W
# VH 2: B1 VH 2
# VL 2: B1 VL 2
# B8: Combo_Rd4_0.6nM_C29/h2B4 anti-BCMA/CD3 bispecific (bispecific antibody, V domains shown)
# VH 1: B1 VH 1 with T58L, Y59P, S104I
# VL 1: B1 VL 1 with T32S, I49M, S54I, P57T, S93Q, T94S, S95W
# VH 2: B1 VH 2
# VL 2: B1 VL 2
# B9: A02_Rd4_6nM_C01 N297Q/K222R Aclys vc0101 (antibody, V domains shown)
# VH: B1 VH 1 with P33A, S35N, G52T, G53A, D103S, S104L
# VL: B1 VL 1 with S31A, T32Y, I49M, S54I, P57T, S93E, T94R, S95W
# modifications: N297Q and K222R (EU) in the human IgG1 constant region; AcLys-Val-Cit-PABC-Aur0101 joined by transglutaminase to the glutamine at 297
# B10: Combo_Rd4_0.6nM_C29 N297Q/K222R Aclys vc0101 (antibody, V domains shown)
# VH: B1 VH 1 with T58L, Y59P, S104I
# VL: B1 VL 1 with T32S, I49M, S54I, P57T, S93Q, T94S, S95W
# modifications: N297Q and K222R (EU) in the human IgG1 constant region; AcLys-Val-Cit-PABC-Aur0101 joined by transglutaminase to the glutamine at 297
# B11: A02_Rd4_6nM_C16 N297Q/K222R Aclys vc0101 (antibody, V domains shown)
# VH: B1 VH 1 with P33A, S35N, G52S, G53D, S54F, S104I
# VL: B1 VL 1 with S31D, T32L, I49M, S54I, P57T, S93Q, S95W
# modifications: N297Q and K222R (EU) in the human IgG1 constant region; AcLys-Val-Cit-PABC-Aur0101 joined by transglutaminase to the glutamine at 297
# B12: Combo_Rd4_0.6nM_C29 LCQ05/K222R Aclys vc0101 (antibody, human IgG1, part only)
# heavy: B1 VH 1 with T58L, Y59P, S104I
# light: B1 VL 1 with T32S, I49M, S54I, P57T, S93Q, T94S, S95W
# chain: GGLLQGPP
# modifications: LCQ05 tag; Aclys vc0101 drug conjugate
# B13: h2B4-1d_Ep (bispecific antibody, part only; not given: anti-EpCam arm, constant regions, V domains shown, not shown: another chain or arm of the molecule; a dimerising Fc or GST; small tags and cut ends)
# VH: B1 VH 2
# VL: B1 VL 2
# B14: h2B4-hnpsTK_Ep (bispecific antibody, part only; not given: anti-EpCam arm, constant regions, V domains shown, not shown: another chain or arm of the molecule; a dimerising Fc or GST; small tags and cut ends)
# VH: B1 VH 2 with A64P
# VL: B1 VL 2 with T24K
# B15: h2B4-TK_Ep (bispecific antibody, part only; not given: anti-EpCam arm, constant regions, V domains shown, not shown: another chain or arm of the molecule; a dimerising Fc or GST; small tags and cut ends)
# VH: B1 VH 2
# VL: B1 VL 2 with T24K
# B16: h2B4-yaesTK_Ep (bispecific antibody, part only; not given: anti-EpCam arm, constant regions, V domains shown, not shown: another chain or arm of the molecule; a dimerising Fc or GST; small tags and cut ends)
# VH: B1 VH 2 with H62Y, N63A, A64E
# VL: B1 VL 2 with T24K
# B17: h25A8-B5_Ep (bispecific antibody, part only; not given: anti-EpCam arm, constant regions, V domains shown, not shown: another chain or arm of the molecule; a dimerising Fc or GST; small tags and cut ends)
# VH: EVQLVESGGGLVKPGGSLRLSCAASGFTFSTYAMNWVRQAPGKGLEWVGRIRSKINNYATYYAESVKGRFTISRDDSKNTLYLQMNSLKTEDTAVYYCVRHETLRSGISWFASWGQGTLVTVSS
# VL: QAVVTQEPSLTVSPGGTVTLTCRSSTGAVTTSNYANWVQQKPGQAPRGLIGGTNTRAPGTPARFSGSLLGGKAALTLSGAQPEDEAEYYCVLWYNNYWVFGGGTKLTVL
# B18: h25A8-B12_Ep (bispecific antibody, part only; not given: anti-EpCam arm, constant regions, V domains shown, not shown: another chain or arm of the molecule; a dimerising Fc or GST; small tags and cut ends)
# VH: B17 VH
# VL: B17 VL with S24A, Y97H
# B19: h25A8-B13_Ep (bispecific antibody, part only; not given: anti-EpCam arm, constant regions, V domains shown, not shown: another chain or arm of the molecule; a dimerising Fc or GST; small tags and cut ends)
# VH: B17 VH
# VL: B17 VL with S24T, Y97H
# B20: h25A8-C8_Ep (bispecific antibody, part only; not given: anti-EpCam arm, constant regions, V domains shown, not shown: another chain or arm of the molecule; a dimerising Fc or GST; small tags and cut ends)
# VH: B17 VH with S30N
# VL: B17 VL with Y97H
# B21: h25A8-B8_Ep (bispecific antibody, part only; not given: anti-EpCam arm, constant regions, V domains shown, not shown: another chain or arm of the molecule; a dimerising Fc or GST; small tags and cut ends)
# VH: B17 VH
# VL: B17 VL with Y97H
# Target: human BCMA (B-Cell Maturation Antigen) on myeloma cells (human) (UniProt Q02223)
# Experiment: cell-based or functional assay
# Sequence of human BCMA (B-Cell Maturation Antigen) on myeloma cells (human) (Q02223 whole entry): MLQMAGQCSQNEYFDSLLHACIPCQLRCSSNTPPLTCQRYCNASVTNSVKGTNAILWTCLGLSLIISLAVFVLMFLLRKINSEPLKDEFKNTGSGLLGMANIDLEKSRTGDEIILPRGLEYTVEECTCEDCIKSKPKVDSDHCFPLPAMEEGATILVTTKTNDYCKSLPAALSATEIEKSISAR
Binder,"EC50, T-cell mediated cytotoxicity (LDH release, 20 h) on KMS12BM (BCMA+) cells","EC50, T-cell mediated cytotoxicity (LDH release, 20 h) on KMS12PE (BCMA+++) cells","EC50, T-cell mediated cytotoxicity (LDH release, 20 h) on MOLP8 (MOLP8+) cells","EC50 (nM), killing of primary myeloma cells in bone marrow mononuclear cells of patient MM00146 (flow cytometry, day 5)","EC50 (nM), killing of primary myeloma cells, patient MM00146, E:T 1:1","EC50 (nM), killing of primary myeloma cells, patient MM00147, E:T 2:1","EC50 (nM), killing of primary myeloma cells, patient MM00151, E:T 3:1","EC50 (nM), killing of primary myeloma cells, patient MM00152, E:T 1:2"
B1,4.12 nM,0.581 nM,–,–,–,–,–,–
B2,0.049 nM,0.115 nM,0.065 nM,–,–,–,–,–
B3,0.052 nM,0.186 nM,0.315 nM,0.029 nM,–,–,–,–
B4,0.057 nM,–,0.06 nM,–,–,–,–,–
B5,0.415 nM,0.189 nM,0.85 nM,–,–,–,–,–
B6,0.078 nM,0.073 nM,0.55 nM,0.064 nM,–,–,–,–
B7,1.51 nM,0.371 nM,5.23 nM,0.946 nM,–,–,–,–
B8,0.049 nM,0.175 nM,0.201 nM,–,0.035 nM,0.031 nM,0.02 nM,0.289 nM

# Target: human BCMA on BCMA-expressing tumor cells (human) (UniProt Q02223)
# Experiment: cell-based or functional assay
# Sequence of human BCMA on BCMA-expressing tumor cells (human) (Q02223 whole entry): as above
Binder,"EC50, cell viability (CellTiter-Glo, 96 h), KMS12BM LUCGFP (+)","EC50, cell viability (CellTiter-Glo, 96 h), L363 LUCGFP (+)","EC50, cell viability (CellTiter-Glo, 96 h), MM1.S LUCGFP (BCMA++)"
B9,18.7 nM and 2.8 µg/mL,2.53 nM and 0.38 µg/mL,0.26 nM and 0.04 µg/mL
B10,0.99 nM and 0.15 µg/mL,0.66 nM and 0.1 µg/mL,0.11 nM and 0.02 µg/mL
B11,38.7 nM and 5.81 µg/mL,9.68 nM and 1.45 µg/mL,0.8 nM and 0.12 µg/mL
B12,10.9 nM and 1.64 µg/mL,1.67 nM and 0.25 µg/mL,0.13 nM and 0.02 µg/mL

# Target: human CD3 (huCD3ed) (human) (UniProt P07766)
# Experiment: Biacore SPR, bispecific hIgG2dA format, 37 C; CD3 antigen not given
# Sequence of human CD3 (huCD3ed) (human) (P07766 23-126, chain 1 of 2): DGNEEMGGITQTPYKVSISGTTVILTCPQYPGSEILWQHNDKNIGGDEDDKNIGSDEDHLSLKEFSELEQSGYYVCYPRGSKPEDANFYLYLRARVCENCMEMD
# Sequence of human CD3 (huCD3ed) (human) (P04234 22-105, chain 2 of 2, further chain): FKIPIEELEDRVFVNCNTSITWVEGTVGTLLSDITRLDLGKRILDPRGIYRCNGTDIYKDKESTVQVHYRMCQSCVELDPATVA
Binder,Kd,koff,kon,t½
B13,40.4 nM,0.0237 s⁻¹,586000 M⁻¹ s⁻¹,29.4 s
B14,31.2 nM,0.0235 s⁻¹,754000 M⁻¹ s⁻¹,29.4 s
B15,31 nM,0.0213 s⁻¹,687000 M⁻¹ s⁻¹,32.4 s
B16,54.4 nM,0.0258 s⁻¹,474000 M⁻¹ s⁻¹,27 s
B17,45 nM,0.0581 s⁻¹,1.29e+06 M⁻¹ s⁻¹,12 s
B18,21 nM,0.0241 s⁻¹,1.15e+06 M⁻¹ s⁻¹,28.8 s
B19,18.3 nM,0.0219 s⁻¹,1.2e+06 M⁻¹ s⁻¹,31.8 s
B20,25.1 nM,0.0301 s⁻¹,1.2e+06 M⁻¹ s⁻¹,22.8 s
B21,18.7 nM,0.0222 s⁻¹,1.19e+06 M⁻¹ s⁻¹,31.2 s
